According to US20160244525A1:

How the values were obtained:
FGFR3-IIIb (human) [1] = experiment: blocking ELISA: FGFR3-IIIb-Fc captured on an anti-human Fc plate, antibody titrated, FGF-1 (with heparin) is the blocked ligand, bound FGF-1 read as OD450
FGFR3-D2 (human) = FGFR3-D2 (human) (UniProt P22607); experiment: SPR (Biacore)
[2] = molecular target: FGFR3-IIIb (D2D3) (human); experiment: SPR (Biacore)
FGFR3-IIIb (human) [3] = experiment: SPR
FGFR3-IIIb (human) [4] = experiment: SPR (Biacore T100), IgG captured by anti-human Fc, FGFR flowed

R3Mab (antibody), sequence (VH): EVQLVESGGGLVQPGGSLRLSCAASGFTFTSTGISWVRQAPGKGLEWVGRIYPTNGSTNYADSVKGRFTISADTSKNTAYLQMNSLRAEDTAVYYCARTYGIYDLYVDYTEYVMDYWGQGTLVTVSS
R3Mab (antibody), sequence (VL): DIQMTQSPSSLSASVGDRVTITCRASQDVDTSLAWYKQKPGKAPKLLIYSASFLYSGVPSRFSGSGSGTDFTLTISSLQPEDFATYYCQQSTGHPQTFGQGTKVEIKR
FGFR3-IIIb (human), sequence (chain, as listed by the source limits assumed): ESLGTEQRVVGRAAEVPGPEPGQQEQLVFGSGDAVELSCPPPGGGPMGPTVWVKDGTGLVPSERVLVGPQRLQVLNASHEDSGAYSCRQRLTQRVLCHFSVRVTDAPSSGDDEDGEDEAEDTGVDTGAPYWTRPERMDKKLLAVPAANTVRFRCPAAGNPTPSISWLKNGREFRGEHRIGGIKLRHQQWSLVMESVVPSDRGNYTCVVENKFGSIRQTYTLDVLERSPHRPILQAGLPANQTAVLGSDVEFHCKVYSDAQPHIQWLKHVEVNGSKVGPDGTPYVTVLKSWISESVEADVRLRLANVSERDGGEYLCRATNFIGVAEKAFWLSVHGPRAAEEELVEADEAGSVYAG
FGFR3-D2 (human), sequence (P22607 150-248 limits assumed): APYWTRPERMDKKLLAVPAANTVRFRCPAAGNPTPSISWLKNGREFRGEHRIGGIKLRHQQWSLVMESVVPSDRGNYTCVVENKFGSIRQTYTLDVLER
FGFR3-IIIb (D2D3) (human), sequence (chain, as listed by the source limits assumed): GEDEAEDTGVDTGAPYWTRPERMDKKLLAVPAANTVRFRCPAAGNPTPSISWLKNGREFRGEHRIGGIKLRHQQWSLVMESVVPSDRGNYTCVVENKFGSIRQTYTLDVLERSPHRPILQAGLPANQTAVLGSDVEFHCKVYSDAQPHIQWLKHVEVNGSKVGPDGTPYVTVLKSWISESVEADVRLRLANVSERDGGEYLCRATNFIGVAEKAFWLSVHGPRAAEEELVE

IC50 (read off the curve) (FGFR3-IIIb (human) [1]): 1 to 2 nM
Kd (FGFR3-D2 (human)): 0.26 nM
Kd [2]: 0.24 nM
Kd (FGFR3-IIIb (human) [3]): 0.24 nM
Kd (FGFR3-IIIb (human) [4]): 0.24 nM
Substance: R3Mab (antibody)
